Assay [1] has as its target human polyclonal IgG (Gammanorm) (human). In words: SPR (Biacore), retained IgG binding capacity after 96 NaOH cycles, ratio to reference Domain 3.
Assay [2] shares this target. In words: SPR (Biacore), ligand amine-coupled to chip, 1 mg/ml human polyclonal IgG flowed; IgG binding signal left after 96 cycles of 10 min 100 mM NaOH.
The target of assay [3] is Purified Fab prepared from a papain-digested IgG mAb. In words: dynamic binding capacity at 10% breakthrough, ligand multipoint-coupled to agarose beads (8.8 mg/ml), 1 mg/ml Fab, residence time 4 min.
The target in assay [4] is Purified Dab prepared from heat-treated E. coli supernatant. Description: dynamic binding capacity at 10% breakthrough, ligand multipoint-coupled to agarose beads (8.8 mg/ml), 1 mg/ml Dab, residence time 4 min.
The target of assay [5] is human polyclonal IgG (Gammanorm) (human). In words: SPR (Biacore), ligand amine-coupled to chip, 1 mg/ml human polyclonal IgG flowed; IgG binding signal left after 100 cycles of 10 min 100 mM NaOH.
Assay [6] has the same target. In words: SPR (Biacore), retained IgG binding capacity after 96 NaOH cycles, ratio to reference Protein L (itself).
Assay [7] has the same target. Description: SPR (Biacore), retained IgG binding capacity after 100 NaOH cycles, ratio to reference Protein L (itself).
Assay [8] has as its target Purified Fab prepared from a papain-digested IgG mAb. In words: dynamic binding capacity at 10% breakthrough, ligand multipoint-coupled to agarose beads (9.5 mg/ml), 1 mg/ml Fab, residence time 4 min.
In assay [9] the target is Purified Dab prepared from heat-treated E. coli supernatant. In words: dynamic binding capacity at 10% breakthrough, ligand multipoint-coupled to agarose beads (9.5 mg/ml), 1 mg/ml Dab, residence time 4 min.
Assay [10] deals with Purified Fab prepared from a papain-digested IgG mAb. In words: dynamic binding capacity at 10% breakthrough, ligand multipoint-coupled to agarose beads (11.0 mg/ml), 1 mg/ml Fab, residence time 4 min.
In assay [11] the target is Purified Dab prepared from heat-treated E. coli supernatant. Description: dynamic binding capacity at 10% breakthrough, ligand multipoint-coupled to agarose beads (11.0 mg/ml), 1 mg/ml Dab, residence time 4 min.
The target in assay [12] is human polyclonal IgG (Gammanorm) (human). In words: SPR (Biacore), retained IgG binding capacity after 96 NaOH cycles, ratio to reference Domain 3 (itself).
Assay [13] has the same target. Description: SPR (Biacore), ligand amine-coupled to chip, 1 mg/ml human polyclonal IgG flowed; IgG binding signal left after 96 cycles of 10 min 100 mM NaOH (second run, reference for the Q19 mutants).
The target is the same in assay [14]. In words: SPR (Biacore), retained IgG binding capacity after 96 NaOH cycles, ratio to reference Domain 3 (itself, second run).

The record followed here is patent publication US20170327545A1.

B1: Domain 1 (D1) of Peptostreptococcus magnus Protein L (protein)
chain: AQVSEEEVTIKANLIFANGSTQTAEFKGTFEKATSEAYAYADTLKKDNGEYTVDVADKGYTLNIKFAGKEKTPEEC
For the molecule B1, the Sample/ref. ratio in assay [1] was 0.42. This molecule also gave a Retained capacity after 96 cycles (%) in assay [2] of 13%.

B2: D3(N10Q, N45A, N60Q)4 (designed binder)
chain: PKEEVTIKAQLIYADGKTQTAEFKGTFEEATAEAYRYADLLAKEAGKYTVDVADKGYTLQIKFAGKEKTPEEPKEEVTIKAQLIYADGKTQTAEFKGTFEEATAEAYRYADLLAKEAGKYTVDVADKGYTLQIKFAGKEKTPEEPKEEVTIKAQLIYADGKTQTAEFKGTFEEATAEAYRYADLLAKEAGKYTVDVADKGYTLQIKFAGKEKTPEEPKEEVTIKAQLIYADGKTQTAEFKGTFEEATAEAYRYADLLAKEAGKYTVDVADKGYTLQIKFAGKEKTPEE
In assay [3], B2 showed a QB10 Fab of 19.3 mg/mL. Moreover, the QB10 Dab in assay [4] was 15.9 mg/mL.

B3: Protein L (four kappa light chain-binding domains, with additional AIHNRA sequence at the N-terminus) (protein)
chain: AIHNRAKEETPETPETDSEEEVTIKANLIFANGSTQTAEFKGTFEKATSEAYAYADTLKKDNGEYTVDVADKGYTLNIKFAGKEKTPEEPKEEVTIKANLIYADGKTQTAEFKGTFEEATAEAYRYADALKKDNGEYTVDVADKGYTLNIKFAGKEKTPEEPKEEVTIKANLIYADGKTQTAEFKGTFEEATAEAYRYADLLAKENGKYTVDVADKGYTLNIKFAGKEKTPEEPKEEVTIKANLIYADGKTQTAEFKGTFAEATAEAYRYADLLAKENGKYTADLEDGGYTINIRFAGKKVDEKPEE
As for B3, the Retained capacity after 96 cycles (%) in assay [2] turned out to be 28%. Moreover, the Retained capacity after 100 cycles (%) in assay [5] worked out at 23%. The Sample/ref. ratio in assay [6] and in [7] was 1 in each case.

B4: D3(N10Q, N45A, N60Q)2 (designed binder)
chain: PKEEVTIKAQLIYADGKTQTAEFKGTFEEATAEAYRYADLLAKEAGKYTVDVADKGYTLQIKFAGKEKTPEEPKEEVTIKAQLIYADGKTQTAEFKGTFEEATAEAYRYADLLAKEAGKYTVDVADKGYTLQIKFAGKEKTPEE
B4 showed a QB10 Fab in [8] of 19.3 mg/mL. This molecule also yielded a QB10 Dab in assay [9] of 15.4 mg/mL.

B5: D3(N10Q, N45A, N60Q)6 (designed binder)
chain: PKEEVTIKAQLIYADGKTQTAEFKGTFEEATAEAYRYADLLAKEAGKYTVDVADKGYTLQIKFAGKEKTPEEPKEEVTIKAQLIYADGKTQTAEFKGTFEEATAEAYRYADLLAKEAGKYTVDVADKGYTLQIKFAGKEKTPEEPKEEVTIKAQLIYADGKTQTAEFKGTFEEATAEAYRYADLLAKEAGKYTVDVADKGYTLQIKFAGKEKTPEEPKEEVTIKAQLIYADGKTQTAEFKGTFEEATAEAYRYADLLAKEAGKYTVDVADKGYTLQIKFAGKEKTPEEPKEEVTIKAQLIYADGKTQTAEFKGTFEEATAEAYRYADLLAKEAGKYTVDVADKGYTLQIKFAGKEKTPEEPKEEVTIKAQLIYADGKTQTAEFKGTFEEATAEAYRYADLLAKEAGKYTVDVADKGYTLQIKFAGKEKTPEE
On to B5, for which the QB10 Fab in assay [10] worked out at 21.1 mg/mL. The molecule further had a QB10 Dab in assay [11] of 16.7 mg/mL.

B6: Domain 4 (D4) of Peptostreptococcus magnus Protein L (protein)
chain: AQVPKEEVTIKANLIYADGKTQTAEFKGTFAEATAEAYRYADLLAKENGKYTADLEDGGYTINIRFAGKKVDEKPEEC
As for B6, in assay [1], the Sample/ref. ratio was determined as 0.84. Moreover, the Retained capacity after 96 cycles (%) in assay [2] came to 26%.

B7: Domain 3 (D3) of Peptostreptococcus magnus Protein L (protein)
chain: AQVPKEEVTIKANLIYADGKTQTAEFKGTFEEATAEAYRYADLLAKENGKYTVDVADKGYTLNIKFAGKEKTPEEC
In the case of B7, the Sample/ref. ratio in [12] and in [14] was 1 throughout. Besides, the Retained capacity after 96 cycles (%) came to 31% in assay [2] and 28% in assay [13].

B8: Domain 2 (D2) of Protein L, variant with alanine in position 31 (protein)
chain: AQVPKEEVTIKANLIYADGKTQTAEFKGTFEEAAAEAYRYADALKKDNGEYTVDVADKGYTLNIKFAGKEKTPEEC
Take B8: the Sample/ref. ratio in assay [1] was 0.71. This molecule also came in with a Retained capacity after 96 cycles (%) in [2] of 22%.
